Assay results published in a protein production outcome set (Wang et al. 2014).

Assay: label from the status in PepcDB records

| Sequence | protein production |
| --- | --- |
| MQNKARKNYIIYVLMLLLFGGLIYVAIEEGDRFSHHAANTLNTVQDGPFAMFLQFMQDNLHHPLTTLLIQIIAVLLMVRLFGYLFSLIGQPGVIGEIVAGIVLGPSVLGLFFPEAFHFLFPVHSLTNLELLSQVGLILFMFVIGMELDFSVLKNKINETLVISHAGILVPFFLGILSSYWIYETYAADHTPFLPFALFIGISMSITAFPVLARIIQERNMTKTPLGTLAIASAANDDVTAWCLLAVVIAISKAGSFASALYSVGLAVAYIAVMFLVVRPFLKKVGEVYANKEAINKTFVAFILLILIISSCLTEIIGIHALFGAFMAGVVMPSNLGFRKVMMEKVEDISLVFFLPLFFAFTGLRTEIGLINSPELWMVCLLLVTVAIVGKLGGCAIAARLVGESWKDSLTVGTLMNTRGLMELVALNIGYEMGVLPPSIFVILVIMALVTTFMTTPLLHLVERFFVHREEKLSLKRKLIFCFGRPESGRSLLSIYDLLFGKQLKKEHVIAAHYTVGTDLNPLDAQHYESESFALLNQRAVELNIQVDNHYRVTDKLVQEMIHFIRKEHPDMLLLGAGSHYRPEMPGTPGAILWLTLFRDKIDDIMEQVKCPVAVFVNRNYREGALVSFVLGGMIDVFLLSYLNIMLQNGHSVRLFLFETDDEEFHQCIDDLLAHYADQIVVVWFAGVEELVTKERDGLLVMSHLSYTKLSEDELVMRELSSLLVIRRNKNKGEKNERLEIG | failed |
| ELTIPKGAVSEIVTLSETFNQMAALLAEREQAILDSRGNRFARLIDGMSDKSFYCSLDPDGQLAQVSEGVTKVLGIPPELLKRKYQRLFSANPLNEKNWEYTDLALKGQNVPPHQIELVDAKGQARRLDVFMQPLVSDT | failed |
| MTLAACMQEADQLQHWREKCWRPFFRVDEEILNIHNEQLGINEDHLHGAQSIHVASNIRARKVFEFPYLQTSMKPEDAGVDAILSKFNIMIYSYKDAAYPFRMVPPIVYAHLAILRVNAGDLTSSDTWRLYM | failed |
| MVKYEELLKTLENGINSEEGEIRLVRKSQGRFKEEFNFDLSLGSKPLLTLKVFLGRKPYWQPWVEVFGVNPNLRNVFFGSEAERKLYEFLSEHFGRIFVEYFEDKETTYELQKGVPPALSRLGFELLKLGYTYFRDWYIPEGLMEGGHKIQAEKPKTEEAKKRHLENLKKEFEEFIGKCEDEGLIKKVKERYNFLEHEGSS | not failed |
| MRTLLFLMLGSVSAIANAASPAPASASASAASATATATPEQIKLQLREYFFDAAREGRQDMLAEFIRSHYDLNTRDEKGYTALILAAYHGQRPAVEQLLSAGADPCAQDKRGNTALMGAIFKGELGIAKRLMQADCAPDQRNNAGQTAAMYAALFQRTDVLKDLAAKGADLSLKDGQGNDVTKLQRGEFATTPAR | failed |
| MKRIIILSPFRGLFRSLLYFLLGLIMALISAGYFSQLFSIVGINRDIAIIISITISFLSLFSSPFNLVLTEVKKEAIAIEEDVVFFFGFPIFIPRISRQNMNTLIAVNLGGALIPLGVSLFLMYELQAYIVYFIINIIVVIIVSKLFSRVIRGVGVIMHPIIPSIFSVISSYVLFYKLHILIPLSAYIGSVLGTLIGADLLNLRRIINEARPQVISIGGMGTFDGIFVSGIISVFISELLVII | failed |
| MLITSSLLPPSGTWIFNINSLFCSLSIKNALSNLPLMRFCNSSTTQHTSTLVISLFIISPENIIFFFRIFYYCDNMEREEFLKYLRQGKYDKLAKLINSYSDILSFLDELFTSNKKDDVRRALLVLKRLDNEVIERYLYYILLNLNEKRIIAKEAEEILKKITNKESVEEAILEIAKKPLDEKIVYLFLQNMKEGNIFFRAILEHTKSKNMEESIKILLKNYNSEMILKILANKLYSSEKDERELTINILLNIVDSLTDEQKNILRGHLSVSLLGDEDKKLYRKFKQLFEKLDIPAELSDEQIKSLLKSHGKTTLNIILRENIKLPANFYNREFLKDFLYTGDEEKQFVGVKLISLKKDSKKKVDLLFRFLNYGYGKAKTAAIRELKKIAQNNNELKKYIENKTLMYAKKMNLGLKISSLRILKEFAKKEHLEFLINEHKRLKELVYKLEEEKFMGGFRHLLMMEEEIRKCNVAMRLIEEIVAEICLKNDIHYNDLKISEKLGYEFYRTMELIGVKNLNLIDIHEFLEDVKRDGELITYLSGIVINNNKIDDNLAKKILEVTEKAEMEDKDVLNANKIMIYASLNRVDKIGEIINMAEGYYSKLAFINGVKKFIDEKLLDEEKINLLIPKIAEMIYSTKKLRLMALEFFKNYPNELVLPILINEIGNYRGEDKLMIDVISNVIFKYPNNIHSIRELLNTDKRNSALKILLKVSEKRPELLEDFIYLLAGMYSSANEEDKKLIKKILKNITTEEQKLILKPIIGDL | failed |
| NDAIPTIFIHGYRGTDRSLHGMIRRFDQKYNWGTESLTVNVSPDGSISTTGTYSKNEKNPLINIVFEDNRATLPQQSMWTKKIMSYLQKNYDIKKFNAIGHSMGGGAWVSYLASYEKNKSYPQVNKIVFLAVPFYPEEYVNGDQQVDIKNANNVHAKFAQKMAKVLPDNTEIMIIGGDLEDGSNSDGEVKLNSVLYGQKLFAHQKVITHVIKGPKATHSSMHESTVVDKYVGQFLWGQK | failed |
| MSLQRVTNCIVVDHDQVLLLQKPRRGWWVAPGGKMEAGESILETVKREYWEETGITVKNPELKGIFSMVIFDEGKIVSEWMLFTFKATEHEGEMLKQSPEGKLEWKKKDEVLELPMAAGDKWIFKHVLHSDRLLYGTFHYTPDFELLSYRLDPEPQMKKKGIITITTDPNSSSVDKLAAALEHHHHHH | not failed |
| MSTIIETGKSDFIKVNVSNSHNDAVAFEVKLAKDLTVAQLKTKLEILTGGCAGTMKVQVFKGDTCVSTMDNNDAQLGYYANSDGLRLHVVDSFATFSFDSAPVEKFELSKDQYEQRTDSVRNYLKINRMGKYNDEEMQQAEEKKRLQAEEIQKRAELCVLGGRCEVTVPGNPTRRGTIRYNGPLEGKSGHFIGVEYDEPLGKNNGSFGGKAYFTCAPNYGGFVSPLSVTVGDFPPEDFNMDDEL | failed |
| MVHMGYKITDKRDLSPIDFFVEVEAPHIAKAWKPGQFVIFILHERGERVPMSVYKAENGRIGMFIRKLGKTSLQLYYEFNVGDEFYSMVGPLGKPIKVKYYGNVVFASDAVCGQAENYATLKAMKEVGNYTISIQTFENAENVYPEEFLAKPVADEHYLTTEDGSVGIKGHYLDIVKELIEKDKVDIIFAGGKLGSLAKLAELTRPYGIPTYATVRQIMVDGTGMCGSCRILYDGEVKFACRDGPVFDAHKVDWEDVLRRANRFLEQERLAKERYLEYLRKKGVI | failed |
| MRGKKRIGLLFLLIAVVVGGGGLLLAQKVLHKTSDTAFCLSCHSMSKPFEEYQGTVHFSNQKGIRAECADCHIPKSGMDYLFAKLKASKDIYHEFVSGKIDSDDKFEAHRQEMAETVWKELKATDSATCRSCHSFDAMDIASQSESAQKMHNKAQKDSETCIDCHKGIAHFPPEIKMDDNAAHELESQAATSVTNGAHIYPFKTSHIGELATVNPGTDLTVVDASGKQPIVLLQGYQMQGSENTLYLAAGQRLALATLSEEGIKALTVNGEWQADEYGNQWRQASLQGALTDPALADRKPLWQYAEKLDDTYCAGCHAPIAADHYTVNAWPSIAKGMGARTSMSENELDILTRYFQYNAKDITEKQ | failed |
| PAMICRYRPDLTLTFGNRPLAAYLECAPEELPGSNLGQWLSAEQREGFERRLKLLSPEYPVSTAEINLQLPGREHAWWVWSDRGVFDEQGQLLEIQAVGRDNTEVRRAQQQLTQSAKMATLGEMATGLAHEINQPLNVMRMAIVNVLKRLGNG | failed |
| MTIHKKGQAHWEGDIKRGKGTVSTESGVLNQQPYGFNTRFEGEKGTNPEELIGAAHAACFSMALSLMLGEAGFTPTSIDTTADVSLDKVDAGFAITKIALKSEVAVPGIDASTFDGIIQKAKAGCPVSQVLKAEITLDYQLKS | not failed |
| MHVAVRRSNTPHPLSSLRHDIVIEPLEEERPPSRFGYDMAGKALSVQPTIDPSAKLHETRLGAYTEVGARTILHEVTMGDYSYVVNDSQITYTTIGKFCSIAAMTRINPGNHPMHRATQAHFTYRSSAYFPGESDDTEFFDWRRQHHVHIGHDVWIGHGAIVLPGRNIGTGAVIAAGAIVTKDVPAYTIVAGNPARIVRRRFSEEIAGRLARLAWWDWDHDKLREALPDFRRLGIEDFLSTYEARAHSPVSKRSAVA | failed |
| MRSIRLRVDWRATASLLGTVLKYLAVALLVPLTVAVIYWEDIWVFAVAIAITVTLGFTLERLDPEPDMGPAEALLLVTVSWLAVAMVGSVPYLLAGYGTASTLANPVNALFESMSGFTTTGATVMGEISTDQHSHALLLWRQLTQWLGGMGIIVLMIAILPELAVNGAQLMKTEAPGPELQKLTPRIAETARVLWLVYFGFTVLLAALLYGLHLAGFAPNMHLYNAVAHAFTTLPTGGFSPESDSIAAFSAVVQWVIIPFMVIAGTNFALFWHLLDGDIRTLLNDAEFRVYAGAIAVLSAILAALLYGGAAPAQELGGTTAGNTENALRQAAFQVGSLMNSTGFATSDFAQWGPTAQALLLFTMFVGGSAGSTGGGIKVIRWLVVMKAIRRELSVTARPEAVKPVRLGGYVVDEDVVRGIMVFTLLYLALFGAATVFFAVDSLRVGYELSVLEAMSASIATLGNIGPGFGMLGPFGSYLGFPPETKIVMVFLMWVGRLEIIPVLAVFTGAFWKR | failed |
| MPITVHAYTSLDNEEIRTQLERLYDTSPEFGDGQDAIEQLEQNLAQYTTVYTAEFNTKIIGAIWCTGQGESKILEYIVVHPANRGRGIAERLVSEVCRMEEAKGVTMFEPGCGAIHRCLAHIGKLSV | failed |
| MALKEAHQPQTQPLWHQLGLVLAKHFEPQDAKAVLQLLRQEHEERLQKISLEHLEQLAQYLLAEEPHVEPAGERELEAKARP | failed |
| MKPNIVLIMVDQMRGDCLGVNGNEFIETPNLDMMATEGYNFENAYTAVPSCIASRASILTGMSQKSHGRVGYEDGVSWNYENTIASEFSKAGYHTQCIGKMHVYPERNLCGFHNIMLHDGYLHFARNKEGKASTQIEQCDDYLKWFREKKGHNVDLIDIGLDCNSWVSRPWGYEENLHPTNWVVNESIDFLRRRDPSKPFFLKMSFVRPHSPLDPPKFYFDMYKDEDLPEPLMGDWANKEDEENRGKDINCVKGIINKKALKRAKAAYYGSITHIDHQIGRFLIALSEYGKLNNTIFLFVSDHGDMMGDHNWFRKGIPYEGSARVPFFIYDPGNLLKGKKGKVFDEVLELRDIMPTLLDFAHISIPDSVEGLSLKDLIEERNSTWRDYIHGEHSFGEDSNHYIVTKKDKFLWFSQRGEEQYFDLEKDPKELTNLINSEEYKERIDYLRKILIKELEGREEGYTDGNKLLKGYPVSTLKHIR | failed |
| STGSATTTPIDSLDDAYITPVQIGTPAQTLNLDFDTGSSDLWVFSSETTASEVDGQTIYTPSKSTTAKLLSGATWSISYGDGSSSSGDVYTDTVSVGGLTVTGQAVESAKKVSSSFTEDSTIDGLLGLAFSTLNTVSPTQQKTFFDNAKASLDSPVFTADLGYHAPGTYNFGFIDTTAYTGSITYTAVSTKQGFWEWTSTGYAVGSGTFKSTSIDGIADTGTTLLYLPATVVSAYWAQVSGAKSSSSVGGYVFPCSATLPSFTFGVGSARIVIPGDYIDFGPISTGSSSCFGGIQSSAGIGINIFGDVALKAAFVVFNGATTPTLGFASK | not failed |
| GTGTQPTIVIGGFVPDATEAVEFQRELFRRHGSVYYLNYARHGFSVEMFFAQLADLVEDLNRRGEKPVIFAISFGCSLLSRFLRERYSGEGLTVGGIVMTSP | failed |
